Assay results published in PMC3712460.
Changes are numbered by the printed parent chain. In names and notes the source's numbering stands. Blank lines part the entries; values can stand above or below the molecule they belong to.

Assays:
Assay in all cases: ITC
[1] = molecular target: NapA signal peptide (Escherichia coli) (UniProt P33937); settings: cited from earlier work
[2] = molecular target: ϕMalE-NapAsp^His (E. coli)
[3] = molecular target: ϕMalE-NapAsp^His K10Q (E. coli)
[4] = molecular target: ϕMalE-NapAsp^His R6Q (E. coli)
[5] = molecular target: ϕMalE-NapAsp^His A17Q variant (E. coli)
[6] = molecular target: ϕMalE-NapAsp^His M9Q (E. coli)

Molecule: NapD (from UniProt P0A9I5)
- Kd [1]: 7 nM

B1: NapD^His (natural protein)
chain: MHTNWQVCSLVVQAKSERISDISTQLNAFPGCEVAVSDAPSGQLIVVVEAEDSETLIQTIESVRNVEGVLAVSLVYHQQEEQGEETP
- Kd, population 1 (two sites) [2]: 3 nM
- Kd, population 2 (two sites) [2]: 143 nM
- N, population 1 (two sites) [2]: 0.35
- N, population 2 (two sites) [2]: 0.64
- Kd [3]: 1300 nM
- stoichiometry N [3]: 0.33
- Kd [4]: 725 nM
- stoichiometry N [4]: 0.6
- Kd [5]: 1100 nM
- stoichiometry N [5]: 0.16
- Kd, population 1 (two sites) [6]: 1 nM
- Kd, population 2 (two sites) [6]: 75 nM
- N, population 1 (two sites) [6]: 0.13
- N, population 2 (two sites) [6]: 0.65

B2: NapD I19F (NapD^His variant) (natural protein)
chain: B1 chain with I19F
- Kd [2]: 806 nM
- stoichiometry N [2]: 0.97
- Kd, population 1 (two sites) [5]: 14 nM
- Kd, population 2 (two sites) [5]: 704 nM
- N, population 1 (two sites) [5]: 0.29
- N, population 2 (two sites) [5]: 0.62

B5: NapD I19F/T59I (NapD^His variant) (natural protein)
chain: B1 chain with I19F, T59I
- Kd [2]: 935 nM
- stoichiometry N [2]: 0.39
- Kd, population 1 (two sites) [5]: 22 nM
- Kd, population 2 (two sites) [5]: 261 nM
- N, population 1 (two sites) [5]: 0.25
- N, population 2 (two sites) [5]: 0.65

B6: NapD A14T (NapD^His variant) (natural protein)
chain: B1 chain with A14T
- Kd [2]: 763 nM
- stoichiometry N [2]: 0.7
- Kd [5]: 1870 nM

Continued, values first:

- Kd [2]: 328 nM
- stoichiometry N [2]: 0.81
- Kd [5]: 633 nM
- stoichiometry N [5]: 0.57
B3: NapD T59I (NapD^His variant) (natural protein)
chain: B1 chain with T59I

- Kd [2]: 571 nM
- stoichiometry N [2]: 0.91
- Kd, population 1 (two sites) [5]: 12 nM
- Kd, population 2 (two sites) [5]: 218 nM
- N, population 1 (two sites) [5]: 0.3
- N, population 2 (two sites) [5]: 0.69
B4: NapD A14T/A71T (NapD^His variant) (natural protein)
chain: B1 chain with A14T, A71T

- Kd [2]: 313 nM
- stoichiometry N [2]: 0.83
- Kd [5]: 833 nM
- stoichiometry N [5]: 1.11
B7: NapD A71T (NapD^His variant) (natural protein)
chain: B1 chain with A71T
